According to US20260001914A1, “MACROCYCLIC PEPTIDES TARGETING KRAS” (Merck Sharp & Dohme LLC, priority 2022, published 2026):
pEC50: −log10 of the molar value. *1 amine or outer side, *2 acyl side, *3 side chain or, on linkers, in order; H or OH if unused. Where a SMILES comes first, the peptide text is derived from it. Bridges are numbered along the chain shown (N, C = ends). [ ]: non-standard residue; d: D form. X18 = CNC(=N)N(C)c1ccc(C[C@H](N[*:1])C(=O)[*:2])cc1; X22 = CNC(=N)N(C)CCC[C@@H](C(=O)[*:2])N(C)[*:1]; Ala(pyrimidin-5-yl) = N[C@@H](Cc1cncnc1)C(=O)O; X29 = CC(=O)N(C)CCC[C@@H](C(=O)[*:2])N(C)[*:1]; NMe3Pal(6-Me) = CN[C@@H](Cc1ccc(C)nc1)C(=O)O; X36 = CN([C@@H](Cc1cnn(C)c1)C(=O)[*:2])[*:1]; X26 = Cn1cc(C[C@H](N[*:1])C(=O)[*:2])cn1; X10 = CS(=O)(=O)CCCCN(CC(=O)[*:2])[*:1]; Phe(2-F) = N[C@@H](Cc1ccccc1F)C(=O)O; NMe3Pal = CN[C@@H](Cc1cccnc1)C(=O)O; X1 = O=C(C12CC(CN[*:1])(C1)C2)[*:2]; NMeAad = CN[C@@H](CCCC(=O)O)C(=O)O; NMeOrn(Me) = CNCCC[C@H](NC)C(=O)O; PhLac = O=C(O)[C@@H](O)Cc1ccccc1; 3Pal = N[C@@H](Cc1cccnc1)C(=O)O; Ahp(2) = CCCCC[C@H](N)C(=O)O; Cba = N[C@@H](CC1CCC1)C(=O)O; NMeAbu = CC[C@H](NC)C(=O)O; αMeC = C[C@](N)(CS)C(=O)O; NMeA = CN[C@@H](C)C(=O)O; Nle = CCCC[C@H](N)C(=O)O

Assays:
[1] = molecular target: phosphorylation levels of ERK1/2 in AsPC-1 (homozygous KRAS-G12D) cells (Homo sapiens, UniProt P01116, G12D); assay: Cellular phospho-ERK assay in AsPC-1 cells (Alpha Screen), assay medium without fetal bovine serum; type: cell-based; conditions: phospho-ERK AlphaScreen, 18 h;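 note: signal taken as phospho-ERK over total ERK per well, both detected in one multiplex bead assay, EC50 from four-parameter logistic fit of dose-response curves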
[2] = molecular target: KRAS-G12D in AsPC-1 cells (UniProt P01116); assay: cell-based or functional assay
[3] = molecular target: Biotin-labeled KRAS-G12D protein (UniProt P01116-2 1-169, limits assumed, biotin label (site not stated); loaded with BODIPY-GDP); assay: cell-based or functional assay

AlphaScreen @18 h, EC50 [2] | SOS assay EC50 [3] | Molecule | pEC50 [1]
– | – | CCCCC[C@@H]1NC(=O)[C@H](Cc2ccc(OC)cc2)NC(=O)[C@H](CC2CCC2)NC(=O)[C@H](Cc2ccc(-c3cccnc3N)cc2)NC(=O)[C@H](CCCNC(=N)N)NC(=O)[C@H](Cc2ccccc2)NC(=O)CSC[C@@](C)(C(N)=O)NC(=O)[C@H](Cc2ccccc2)N(C)C1=O [compound 390, cyclo(F-R-Phe43PyNH2-cBuA-TyrOMe-Ahp-NMeF-aMeCl-ClAc)] | < 4.29
– | – | CCCCC[C@@H]1NC(=O)[C@H](Cc2ccc(OC)cc2)NC(=O)[C@H](CC2CCC2)NC(=O)[C@H](Cc2ccc(N3CCC[C@@H]3CN)cc2)NC(=O)[C@H](CCCNC(=N)N)NC(=O)[C@H](Cc2ccccc2)NC(=O)CSC[C@@](C)(C(N)=O)NC(=O)[C@H](Cc2ccccc2)N(C)C1=O [compound 391, cyclo(F-R~Phe4RamPyrr-cBuA-TyrOMe-Abp-NMeF-aMeCl-ClAc)] | < 4.29
– | – | CCCCC[C@@H]1NC(=O)[C@H](Cc2ccc(OC)cc2)NC(=O)[C@H](CC2CCC2)NC(=O)[C@H](Cc2ccc(N3CCC[C@H]3CN)cc2)NC(=O)[C@H](CCCNC(=N)N)NC(=O)[C@H](Cc2ccccc2)NC(=O)CSC[C@@](C)(C(N)=O)NC(=O)[C@H](Cc2ccccc2)N(C)C1=O [compound 392, cyclo(F-R-Phe4SamPyrr-cBuA-TyrOMe-Ahp-NMeF-aMeCl-ClAc)] | < 4.29
– | – | CCCCC[C@@H]1NC(=O)[C@H](Cc2ccc(OC)cc2)NC(=O)[C@H](CC2CCC2)NC(=O)[C@H](Cc2cccnc2)NC(=O)[C@H](CCCNC)N(C)C(=O)[C@H](Cc2ccccc2)NC(=O)CSC[C@@](C)(C(N)=O)NC(=O)[C@H](Cc2ccc(C)nc2)N(C)C1=O [compound 393, cyclo(F-NMeOrnMe-3Pal-cBuA-TyrOMe-Ahp-NMe3Pal4Me-aMeCl-ClAc)] ({CH2CO}-F[NMeOrn(Me)][3Pal][Cba]Y(Me)[Ahp(2)][NMe3Pal(6-Me)][αMeC]-NH2; thioether N-8) | < 4.29
– | – | CCCCC[C@@H]1NC(=O)[C@H](Cc2ccc(OC)cc2)NC(=O)[C@H](CC2CCC2)NC(=O)[C@H](Cc2cncnc2)NC(=O)[C@H](CCCNC)N(C)C(=O)[C@H](Cc2ccccc2)NC(=O)CSC[C@@](C)(C(N)=O)NC(=O)[C@H](Cc2ccc(C)nc2)N(C)C1=O [compound 394, cyclo(F-NMeOmMe-PyrimAla-cBuA-TyrOMe-Ahp-NMe3Pal4Me-aMeCl-ClAc)] ({CH2CO}-F[NMeOrn(Me)][Ala(pyrimidin-5-yl)][Cba]Y(Me)[Ahp(2)][NMe3Pal(6-Me)][αMeC]-NH2; thioether N-8) | < 4.29
– | – | CCCCC[C@@H]1NC(=O)[C@H](Cc2ccc(OC)cc2)NC(=O)[C@H](CC2CCC2)NC(=O)[C@H](Cc2ccc(N(C)C(=N)NC)cc2)NC(=O)[C@H](CCCNC)N(C)C(=O)[C@H](Cc2ccccc2)NC(=O)CSC[C@@](C)(C(N)=O)NC(=O)[C@H](Cc2ccc(C)nc2)N(C)C1=O [compound 395, cyclo(F-NMeOmMe-Phe4GnMeMe-cBuA-TyrOMe-Ahp-NMe3Pal4Me-aMeCl-ClAc)] ({CH2CO}-F[NMeOrn(Me)][X18][Cba]Y(Me)[Ahp(2)][NMe3Pal(6-Me)][αMeC]-NH2; thioether N-8) | < 4.29
– | – | CCCC[C@@H]1NC(=O)[C@H](Cc2cccnc2)NC(=O)[C@H](CCCN(C)C(=N)NC)N(C)C(=O)[C@H](Cc2ccccc2)OC(=O)CSC[C@@](C)(C(N)=O)NC(=O)[C@H](Cc2cccnc2)N(C)C(=O)[C@H](CCCC)NC(=O)[C@H](Cc2ccccc2F)NC1=O [compound 396, cyclo(FLac-NMeArg1MeMe-3Pal-Nle-Phe2F-Nle-NMe3Pal-aMeCl-ClAc)] ({CH2CO}-[PhLac][X22][3Pal][Nle][Phe(2-F)][Nle][NMe3Pal][αMeC]-NH2; thioether N-8) | < 4.29
– | – | CCCC[C@@H]1NC(=O)[C@H](Cc2ccc(N(C)C(=N)NC)cc2)NC(=O)[C@H](C)N(C)C(=O)[C@H](Cc2ccccc2)OC(=O)CSC[C@@](C)(C(N)=O)NC(=O)[C@H](Cc2cccnc2)N(C)C(=O)[C@H](CCCC)NC(=O)[C@H](Cc2ccccc2F)NC1=O [compound 397, cyclo(FLac-NMeA-Phe4GnMeMe-Nle-Phe2F-Nle-NMe3Pal-aMeCl-ClAc)] ({CH2CO}-[PhLac][NMeA][X18][Nle][Phe(2-F)][Nle][NMe3Pal][αMeC]-NH2; thioether N-8) | < 4.29
– | – | CCCC[C@@H]1NC(=O)[C@H](Cc2cccnc2)NC(=O)[C@H](C)N(C)C(=O)[C@H](Cc2ccccc2)OC(=O)CSC[C@@](C)(C(N)=O)NC(=O)[C@H](Cc2cccnc2)N(C)C(=O)[C@H](CCCC)NC(=O)[C@H](Cc2ccccc2F)NC1=O [compound 398, cyclo(FLac-NMeA-3Pal-Nlc-Phe2F-Nle-NMe3Pal-aMeCl-ClAc)] ({CH2CO}-[PhLac][NMeA][3Pal][Nle][Phe(2-F)][Nle][NMe3Pal][αMeC]-NH2; thioether N-8) | 4.39
– | – | CCCC[C@@H]1NC(=O)[C@H](Cc2cnn(C)c2)NC(=O)[C@H](C)N(C)C(=O)[C@H](Cc2ccccc2)OC(=O)C23CC(CNC(=O)[C@H](Cc4cccnc4)N(C)C(=O)[C@H](CCCC)NC(=O)[C@H](Cc4ccccc4F)NC1=O)(C2)C3 [compound 400, cyclo(FLac-NMeA-Ala4PyzlMe-Nle-Phe2F-Nle-NMe3Pal-amBCP)] (cyclo([NMe3Pal][X1][PhLac][NMeA][X26][Nle][Phe(2-F)][Nle])) | 4.50
– | – | CCCC[C@@H]1NC(=O)[C@H](Cc2cccnc2)NC(=O)[C@H](C)N(C)C(=O)[C@H](Cc2ccccc2)OC(=O)C23CC(CNC(=O)[C@H](Cc4ccc(C)nc4)N(C)C(=O)[C@H](CCCC)NC(=O)[C@H](Cc4ccccc4F)NC1=O)(C2)C3 [compound 402, cyclo(FLac-NMeA-3Pal-Nle-Phe2F-Nle-NMe3Pal4Me-amBCP)] (cyclo([3Pal][Nle][Phe(2-F)][Nle][NMe3Pal(6-Me)][X1][PhLac][NMeA])) | 5.00
– | – | CCCC[C@@H]1NC(=O)[C@H](Cc2cccnc2)NC(=O)[C@H](C)N(C)C(=O)[C@H](Cc2ccccc2)OC(=O)C23CC(CNC(=O)[C@H](Cc4cnn(C)c4)N(C)C(=O)[C@H](CCCC)NC(=O)[C@H](Cc4ccccc4F)NC1=O)(C2)C3 [compound 403, cyclo(FLac-NMeA-3Pal-Nle-Phe2F-Nle-NMeAla4PyzlMe-amBCP)] (cyclo([3Pal][Nle][Phe(2-F)][Nle][X36][X1][PhLac][NMeA])) | 4.73
– | – | CCCC[C@@H]1NC(=O)[C@H](Cc2cccnc2)NC(=O)[C@H](CC)N(C)C(=O)[C@H](Cc2ccccc2)OC(=O)C23CC(CNC(=O)[C@H](Cc4cccnc4)N(C)C(=O)[C@H](CCCC)NC(=O)[C@H](Cc4ccccc4F)NC1=O)(C2)C3 [compound 404, cyclo(FLac-NMeAbu-3Pal-Nle-Phe2F-Nle-NMe3Pal-amBCP)] (cyclo([3Pal][Nle][Phe(2-F)][Nle][NMe3Pal][X1][PhLac][NMeAbu])) | 4.51
– | – | CCCC[C@@H]1NC(=O)[C@H](Cc2cccnc2)NC(=O)[C@H](CCCN(C)C(C)=O)N(C)C(=O)[C@H](Cc2ccccc2)OC(=O)C23CC(CNC(=O)[C@H](Cc4cccnc4)N(C)C(=O)[C@H](CCCC)NC(=O)[C@H](Cc4ccccc4F)NC1=O)(C2)C3 [compound 405, cyclo(FLac-NMeOrnAc-3Pal-Nle-Phe2F-Nle-NMe3Pal-amBCP)] (cyclo([3Pal][Nle][Phe(2-F)][Nle][NMe3Pal][X1][PhLac][X29])) | < 4.29
– | – | CCCC[C@@H]1NC(=O)[C@H](Cc2cccnc2)NC(=O)CN(CCCCS(C)(=O)=O)C(=O)[C@H](Cc2ccccc2)OC(=O)C23CC(CNC(=O)[C@H](Cc4cccnc4)N(C)C(=O)[C@H](CCCC)NC(=O)[C@H](Cc4ccccc4F)NC1=O)(C2)C3 [compound 407, cyclo(FLac-NOHmsbGly-3Pal-Nle-Phe2F-Nle-NMe3Pal-amBCP)] (cyclo([3Pal][Nle][Phe(2-F)][Nle][NMe3Pal][X1][PhLac][X10])) | < 4.29
– | – | CCCC[C@@H]1NC(=O)[C@H](Cc2cccnc2)NC(=O)[C@H](CCCC(=O)N(C)C)N(C)C(=O)[C@H](Cc2ccccc2)OC(=O)C23CC(CNC(=O)[C@H](Cc4cccnc4)N(C)C(=O)[C@H](CCCC)NC(=O)[C@H](Cc4ccccc4F)NC1=O)(C2)C3 [compound 408, cyclo(FLac-hQdm-3Pal-Nle-Phe2F-Nle-NMe3Pal-amBCP)] (cyclo([3Pal][Nle][Phe(2-F)][Nle][NMe3Pal][X1][PhLac][NMeAad](NMe2))) | < 4.29
> 50.9 µM | 2.12 µM | cyclo(1Nal-R-K-Nle-Phe3COOH-Nle-NMeF-Cysteamine-C1Ac) (peptide) | –
> 50.9 µM | 3.06 µM | cyclo(3Pal-NMeA-3Pal-Nle-Phe2F-Nle-NMe3Pal-amBCP) (peptide) | –
> 50.9 µM | 1.78 µM | cyclo(4F3Pal-NMeA-3Pal-Nle-Phe2F-Nle-NMe3Pal-amBCP) (peptide) | –
> 50.9 µM | 2.89 µM | cyclo(4Me3Pal-NMeA-3Pal-Nle-Phe2F-Nle-NMe3Pal-amBCP) (peptide) | –
3.4 µM | 0.051 µM | cyclo(CPhe-NMeA-PyrimAla-cPrA-Phe2F-Nle3F2-NMeF-MeOximamBCP) isomer 1 (peptide) | –
0.128 µM | 0.0017 µM | cyclo(CPhe-NMeA-PyrimAla-cPrA-Phe2F-Nle3F2-NMeF-MeOximamBCP) isomer 2 (peptide) | –
> 50.9 µM | 6.56 µM | cyclo(F-DabN3~3Pal-cBuA-V-Nle-NMe3Pal-amBCP) (peptide) | –
21 µM | – | cyclo(F-NMeA-3Pal-Nle-Phe2F-Nle-NMeF-aMeC1-C1Ac) (peptide) | –
> 50.9 µM | 0.146 µM | cyclo(F-NMeA-3Pal-cBuA-TyrOMe-Ahp-NMeF-aMeC1-C1Ac) (peptide) | –
> 50.9 µM | 0.313 µM | cyclo(F-NMeA~3Pal-Nle-Phe2F-Nle-NMe3Pal-amBCP) (peptide) | –
> 50.9 µM | 3.88 µM | cyclo(F-NMeDabN3-3Pal-NleLac-Phe2F-Nle-NMe3Pal-amBCP) (peptide) | –
> 50.9 µM | 0.224 µM | cyclo(F-NMeR-3Pal-Nle-TyrOMe-LysN3-NMeF-tamcPr) (peptide) | –
45 µM | – | cyclo(FLac-NMeA-PyrimAla-cBuA-Phe2F-Nle-NMe3Pal-amBCP) (peptide) | –
0.355 µM | – | cyclo(FLac-NMeA-PyrimAla-cBuA-Phe26F2-hL-NMeF-amBCP) (peptide) | –
